Legend:
Assay in all cases: ITC
[1] = molecular target: ΔIBB-KPNA5 (66-509) (human)
[2] = molecular target: KPNA1 in a 1:1 complex with eVP24 (human | Ebola virus) (UniProt P52294)
[3] = molecular target: KPNA5 in a 1:1 complex with eVP24 (competition ITC) (human | Ebola virus) (UniProt O15131)
Sequence of UniProt O15131 (O15131 whole entry, chain 1 of 2): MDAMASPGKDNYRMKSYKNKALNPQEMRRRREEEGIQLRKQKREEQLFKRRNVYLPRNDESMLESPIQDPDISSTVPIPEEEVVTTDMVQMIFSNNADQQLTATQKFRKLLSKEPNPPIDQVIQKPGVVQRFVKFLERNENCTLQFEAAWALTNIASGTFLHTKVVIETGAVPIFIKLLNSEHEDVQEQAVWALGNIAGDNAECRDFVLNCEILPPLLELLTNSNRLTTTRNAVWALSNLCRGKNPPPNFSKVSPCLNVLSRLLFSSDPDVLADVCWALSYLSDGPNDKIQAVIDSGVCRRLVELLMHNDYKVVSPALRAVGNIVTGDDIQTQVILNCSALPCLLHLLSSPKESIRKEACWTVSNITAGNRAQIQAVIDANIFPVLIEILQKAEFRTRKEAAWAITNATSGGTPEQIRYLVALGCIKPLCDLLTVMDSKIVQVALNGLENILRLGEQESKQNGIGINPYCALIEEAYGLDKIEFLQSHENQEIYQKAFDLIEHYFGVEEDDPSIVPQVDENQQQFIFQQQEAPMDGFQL
Sequence of UniProt O15131 (Q05322 whole entry, chain 2 of 2, further chain): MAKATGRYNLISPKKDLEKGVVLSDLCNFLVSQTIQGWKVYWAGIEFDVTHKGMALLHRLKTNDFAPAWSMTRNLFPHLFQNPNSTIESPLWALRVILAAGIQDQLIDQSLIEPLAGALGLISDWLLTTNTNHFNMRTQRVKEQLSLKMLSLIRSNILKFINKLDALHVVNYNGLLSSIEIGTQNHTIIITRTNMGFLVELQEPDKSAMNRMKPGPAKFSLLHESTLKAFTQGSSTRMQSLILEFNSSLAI

Sequence of UniProt P52294 (P52294 whole entry, chain 1 of 2): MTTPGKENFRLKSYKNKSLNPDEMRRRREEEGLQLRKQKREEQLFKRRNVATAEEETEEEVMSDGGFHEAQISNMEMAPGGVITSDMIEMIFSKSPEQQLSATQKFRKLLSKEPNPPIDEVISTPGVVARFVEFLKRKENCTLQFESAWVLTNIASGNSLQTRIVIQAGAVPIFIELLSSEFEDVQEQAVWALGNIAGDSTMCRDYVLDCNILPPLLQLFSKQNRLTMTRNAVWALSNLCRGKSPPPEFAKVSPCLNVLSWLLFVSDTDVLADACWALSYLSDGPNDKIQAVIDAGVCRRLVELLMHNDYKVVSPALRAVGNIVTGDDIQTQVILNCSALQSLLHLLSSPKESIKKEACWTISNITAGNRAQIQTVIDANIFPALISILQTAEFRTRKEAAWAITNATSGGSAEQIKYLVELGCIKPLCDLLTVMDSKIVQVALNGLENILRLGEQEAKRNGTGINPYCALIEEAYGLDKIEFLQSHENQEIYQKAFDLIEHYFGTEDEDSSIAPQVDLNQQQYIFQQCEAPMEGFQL
Sequence of UniProt P52294 (Q05322 whole entry, chain 2 of 2, further chain): as the sequence (Q05322 whole entry, chain 2 of 2, further chain) above

MBP-tagged eVP24 (residues 11-237) (from UniProt Q05322 11-237) (domain or fragment)
Kd [1]: 1 to 10 nM

nucleoplasmin peptide (bipartite cNLS)
fold difference in binding against KPNA1 without eVP24 [2]: 2 fold | fold difference in binding against KPNA5 without eVP24 [3]: 2 fold
